Patent US20090298167A1 (Pfizer, published 2009)
Changes are numbered by the printed parent chain.

B1: scFv H3 (scFv)
scFv: QVQLQESGPGLVKTSETLSLTCAVSGYSISSGYYWGWIRQPPGKGLEWIGSISHTGNTYYNPPLKSRVTISVDTSKNQFSLKLSSVTAADTAVYYCARFMGFGRPEYWGKGTLVTVSSGGGGSGGGGSGGGGSALSSELTQDPPVSVALGQTVTLTCQGDSLRTYYASWYQQKSGQAPILLLYGKHKRPSGIPDRFSGSTSGDTASLTITGAQAEDEADYYCNSRDSSGNPHVLFGGGTQLTVL
B2: scFv H4 (scFv)
scFv: B1 scFv with F99W, M100L
B3: scFv H5 (scFv)
scFv: B1 scFv with M100L
B4: scFv L19 (scFv)
scFv: B1 scFv with F99G, M100G, F102I, G103S, N223V, S224A, D226A, S227V, S228R
B5: scFv L17 (scFv)
scFv: B1 scFv with F99G, M100G, F102I, G103S, N223S, S224T, D226S, S227R, S228K
B6: scFv L11 (scFv)
scFv: B1 scFv with F99G, M100G, F102I, G103S, N223S, D226S, S227R, S228H
B7: scFv L8 (scFv)
scFv: B1 scFv with F99G, M100G, F102I, G103S, N223T, S224T, D226S, S227T, S228Q
B8: scFv L4 (scFv)
scFv: B1 scFv with F99G, M100G, F102I, G103S, N223S, S224T, D226S, S228K
B9: scFv L24 (scFv)
scFv: B1 scFv with F99G, M100G, F102I, G103S, N223I, S224A, D226S, S227N, S228K
B10: scFv L25 (scFv)
scFv: B1 scFv with F99G, M100G, F102I, G103S, N223T, S224T, D226S, S227N, S228K
B11: scFv L6 (scFv)
scFv: B1 scFv with F99G, M100G, F102I, G103S, N223M, D226S, S227I, S228W
B12: scFv L9 (scFv)
scFv: B1 scFv with F99G, M100G, F102I, G103S, N223V, S224A, D226S, S227N, S228K
B13: scFv L16 (scFv)
scFv: B1 scFv with F99G, M100G, F102I, G103S, N223V, S224T, D226S, S227A, S228K
B14: scFv L5 (scFv)
scFv: B1 scFv with F99G, M100G, F102I, G103S, N223A, D226S, S228K
B15: scFv H6 (scFv)
scFv: B1 scFv with M100F
B16: scFv L3 (scFv)
scFv: B1 scFv with F99G, M100G, F102I, G103S, N223V, D226A, S227V, S228V
B17: scFv L18 (scFv)
scFv: B1 scFv with F99G, M100G, F102I, G103S, N223V, S224T, D226S, S227V, S228K
B18: scFv L15 (scFv)
scFv: B1 scFv with F99G, M100G, F102I, G103S, N223S, S224T, D226A, S227I, S228H
B19: scFv L13 (scFv)
scFv: B1 scFv with F99G, M100G, F102I, G103S, N223V, S224T, D226N, S227R, S228Y
B20: scFv L23 (scFv)
scFv: B1 scFv with F99G, M100G, F102I, G103S, N223S, S224A, D226S, S227V, S228R
B21: scFv L10 (scFv)
scFv: B1 scFv with F99G, M100G, F102I, G103S, N223I, D226S, S227I, S228Y
B22: scFv L1 (scFv)
scFv: B1 scFv with F99G, M100G, F102I, G103S, N223A, D226S, S227V
B23: scFv L20 (scFv)
scFv: B1 scFv with F99G, M100G, F102I, G103S, N223V, D226S, S227A, S228K
B24: scFv L14 (scFv)
scFv: B1 scFv with F99G, M100G, F102I, G103S, N223M, S224A, D226S, S227R, S228K
B25: scFv L21 (scFv)
scFv: B1 scFv with F99G, M100G, F102I, G103S, N223A, S224T, D226A, S227V, S228R
B26: scFv L12 (scFv)
scFv: B1 scFv with F99G, M100G, F102I, G103S, N223V, S224A, D226G, S227T, S228R
B27: scFv L2 (scFv)
scFv: B1 scFv with F99G, M100G, F102I, G103S, N223V, S224A, D226S, S227V, S228V

How the values were obtained:
[1] = target: human IL-21R expressed on cells (human, UniProt Q9HBE5 20-538); assay: cell-based or functional assay
human IL-21R expressed on cells, sequence (Q9HBE5 20-538 limits assumed): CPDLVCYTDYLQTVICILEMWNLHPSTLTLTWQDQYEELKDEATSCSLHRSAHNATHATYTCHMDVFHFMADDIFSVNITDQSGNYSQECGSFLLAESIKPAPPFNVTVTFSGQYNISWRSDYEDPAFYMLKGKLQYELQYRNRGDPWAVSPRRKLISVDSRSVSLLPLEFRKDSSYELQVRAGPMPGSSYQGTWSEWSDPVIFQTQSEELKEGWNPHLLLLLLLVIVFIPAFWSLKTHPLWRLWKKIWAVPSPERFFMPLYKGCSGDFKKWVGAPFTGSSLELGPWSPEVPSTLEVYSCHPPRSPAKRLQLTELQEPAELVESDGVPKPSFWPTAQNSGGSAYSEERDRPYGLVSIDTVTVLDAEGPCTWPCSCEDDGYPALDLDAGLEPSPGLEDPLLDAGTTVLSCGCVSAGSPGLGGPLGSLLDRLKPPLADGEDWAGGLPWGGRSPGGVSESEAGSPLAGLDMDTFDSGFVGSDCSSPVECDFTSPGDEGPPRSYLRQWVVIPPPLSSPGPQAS

[2] = target: murine IL-21R expressed on cells (murine, UniProt Q9JHX3 20-529); assay: cell-based or functional assay
murine IL-21R expressed on cells, sequence (Q9JHX3 20-529 limits assumed): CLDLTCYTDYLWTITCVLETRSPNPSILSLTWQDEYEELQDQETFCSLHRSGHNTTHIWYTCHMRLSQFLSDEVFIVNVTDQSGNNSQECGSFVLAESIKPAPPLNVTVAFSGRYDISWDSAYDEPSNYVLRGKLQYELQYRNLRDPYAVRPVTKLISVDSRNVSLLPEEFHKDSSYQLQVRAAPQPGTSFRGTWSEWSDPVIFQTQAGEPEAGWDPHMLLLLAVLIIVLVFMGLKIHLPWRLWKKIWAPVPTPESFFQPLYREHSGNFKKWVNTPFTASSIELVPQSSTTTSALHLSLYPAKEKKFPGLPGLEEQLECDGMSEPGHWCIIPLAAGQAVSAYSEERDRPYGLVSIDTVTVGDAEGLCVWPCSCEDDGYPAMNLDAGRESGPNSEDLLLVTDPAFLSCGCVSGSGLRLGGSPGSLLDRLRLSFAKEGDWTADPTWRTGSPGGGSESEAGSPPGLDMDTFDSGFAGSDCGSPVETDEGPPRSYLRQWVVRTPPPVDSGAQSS

Binder	IC50 (nM) in Human IL-21R-BaF3 Neutralization Assay [1]	IC50 (nM) in Human IL-21R-TF1 Neutralization Assay [1]	IC50 (nM) in Murine IL-21R-BaF3 Neutralization Assay [2]
B1	7.7 nM	98.1 nM	25.7 nM
B2	3.8 nM	9.3 nM	
B3	7.9 nM	178 nM	53.7 nM
B4	4.5 nM	35.3 nM	13.6 nM
B5	1.6 nM	60.3 nM	2.66 nM
B6	4.2 nM	38.3 nM	10 nM
B7	4.1 nM	51.3 nM	715 nM
B8	2.1 nM	~60 nM	
B9	2.4 nM	18.7 nM	3.73 nM
B10	3.7 nM	33.1 nM	15.6 nM
B11	5.9 nM	~150 nM	0.29 nM
B12	2.8 nM	27.7 nM	3.61 nM
B13	3.7 nM	67.4 nM	4.71 nM
B14	2.1 nM	~20 nM	38.5 nM
B15	13.8 nM	~150 nM	
B16	27.6 nM	~7 nM	13.8 nM
B17	3.7 nM	54.4 nM	8.34 nM
B18	3.3 nM	30.3 nM	53.5 nM
B19	11 nM	257 nM	1.25 nM
B20	1.5 nM	15.3 nM	
B21	15.1 nM	7 nM	
B22	3.7 nM	~55 nM	28.8 nM
B23	3.1 nM	57.5 nM	15.4 nM
B24	3.2 nM	33.5 nM	6.49 nM
B25	9.4 nM	~100 nM	162 nM
B26	2.6 nM	54.9 nM	87.8 nM
B27	3.1 nM	37.5 nM	2.41 nM
